The target in test [1] is T1, PKTLTWHS
T1 construct: 8mer of LY75 on the peptide microarray, chart Region 7
T1 peptide: PKTLTWHS
Nature of the test: peptide microarray of 8mer LY75 peptides.

For test [2], the target named is T2, KTLTWHSA
T2 construct: 8mer of LY75 on the peptide microarray, chart Region 7
T2 peptide: KTLTWHSA
The test can be described thus: peptide microarray of 8mer LY75 peptides.

Test [3] deals with T3, IIPKTLTW
T3 construct: 8mer of LY75 on the peptide microarray, chart Region 7
T3 peptide: IIPKTLTW
The test can be described thus: peptide microarray of 8mer LY75 peptides.

Test [4] has as its target T4, KIIPKTLT
T4 construct: 8mer of LY75 on the peptide microarray, chart Region 7
T4 peptide: KIIPKTLT
Nature of the test: peptide microarray of 8mer LY75 peptides.

Test [5] addresses T5, NLYKIIPK
T5 construct: 8mer of LY75 on the peptide microarray, chart Region 7
T5 peptide: NLYKIIPK
Nature of the test: peptide microarray of 8mer LY75 peptides.

Test [6] addresses T6, LY75 (DEC-205) on COLO205 cells (human, UniProt O60449 28-1722).
T6 construct: also called Lymphocyte antigen 75
The test can be described thus: competitive FACS on COLO205 cells. The procedure: COLO205 cells (ATCC, catalog # CCL-222) were detached from tissue culture flasks with Cell Stripper (Cellgro, catalog # MT-25-056CI). Cells were washed and resuspended in FACS buffer (PBS+2% FBS), neutralized with growth media, and counted. Cells were plated at 50,000 cells per well in a V Bottom 96-well plate. Cells were washed once with FACS buffer (PBS (Fisher, catalog # SH30028-03)+2% FBS). An anti-LY75-mAb (Selected from Example 1) or LY75_A1 was added to wells starting at 250 nM and diluted serially 3 fold and applied to the relevant wells for 45 minutes on ice. Test wells that required single or multiple staining steps were left in FACS buffer as appropriate to ensure the final staining was completed simultaneously for all conditions tested. Two wells were left unstained in FACS buffer as controls.
After the incubation with blocking antibody, cells were washed twice in FACS buffer. The cells were resuspended in FACS buffer containing the anti-LY75-mAb conjugated to MCC-DM1 (1 nM) and incubated on ice for 45 minutes. The cells were washed as above and resuspended in FACS buffer plus 1 ug/ml mouse anti-maytansine antibody and incubated in ice for 45 minutes. […] Mean fluorescence intensity of each sample was determined using a Guava EasyCyte Plus HT Flow Cytometer (96 well plate formats) and the raw data was analyzed using the Guava Cytosoft.

Test [7] has as its target T7, LY75 Region 3 (aa761-780) (human).
T7 construct: Region made up of overlapping 8mers on the array
T7 peptide: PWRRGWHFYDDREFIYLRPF
The test can be described thus: peptide microarray; signal above the cut off of 3000.

For test [8], the target named is T8, LY75 Region 5 (aa1029-1040) (human).
T8 construct: Region made up of overlapping 8mers on the array
T8 peptide: RELTYSNFHPLL
Described as above.

In test [9] the target is T9, LY75 Region 7 (aa1107-1118) (human).
T9 construct: Region made up of overlapping 8mers on the array
T9 peptide: TVKYLNNLYKII
Described as above.

Test [10] concerns the target T10, LY75 Region 4 (aa883-901) (human).
T10 construct: Region made up of overlapping 8mers on the array
T10 peptide: DDHFTYSRYPWHRFPVTFG
Described as above.

In test [11] the target is T11, LY75 Region 6 (aa1077-1093) (human).
T11 construct: Region made up of overlapping 8mers on the array
T11 peptide: FTSCSERHFVSLCQKYS
The test is described as above.

Test [12] deals with T12, RHFVSLCQ
T12 construct: 8mer of LY75 on the peptide microarray, chart Region 6
T12 peptide: RHFVSLCQ
The test can be described thus: peptide microarray of 8mer LY75 peptides.

The target of test [13] is T13, LCQKYSEV
T13 construct: 8mer of LY75 on the peptide microarray, chart Region 6
T13 peptide: LCQKYSEV
The test can be described thus: peptide microarray of 8mer LY75 peptides.

Test [14] addresses T14, SLCQKYSE
T14 construct: 8mer of LY75 on the peptide microarray, chart Region 6
T14 peptide: SLCQKYSE
The test can be described thus: peptide microarray of 8mer LY75 peptides.

Test [15] addresses T15, CQKYSEVK
T15 construct: 8mer of LY75 on the peptide microarray, chart Region 6
T15 peptide: CQKYSEVK
Nature of the test: peptide microarray of 8mer LY75 peptides.

Test [16] has as its target T16, QKYSEVKS
T16 construct: 8mer of LY75 on the peptide microarray, chart Region 6
T16 peptide: QKYSEVKS
Nature of the test: peptide microarray of 8mer LY75 peptides.

The target of test [17] is T17, LY75 tryptic peptide GWHFYDDR (765-772) (human).
T17 construct: Tryptic peptide of recombinant LY75 identified by mass spectrometry after pull down
T17 peptide: GWHFYDDR
The test can be described thus: peptide microarray of 8mer LY75 peptides (array peptide with the letters of m17), LY75_A1 at 1 µg/mL, anti-human IgG Alexa 647. On the procedure: (§1) The peptide microarray analysis was performed by LC Sciences, Houston Tex., in brief the method comprised the following steps:—Contiguous 8mer peptides of LY75 protein having […] spanning residues 216 to 1666 of the full length LY75 protein were synthesized and immobilized on a microarray chip. The chip comprised three panels such that the experiment was performed in triplicate. The microarray was addressed with LY75_A1 to identify the peptides to which the antibody bound. The binding assay was performed under the following conditions:—
(§2) The microarray comprising the contiguous peptides in triplicate was washed with 1 mL of binding buffer at 4° C. for 20 min. It was then incubated with 1 μg/mL LY75_A1 in binding buffer (pH 7.0) at 4° C. for 2 hrs. The array was again washed with 0.5 mL of washing buffer at 4° C. for 30 min then incubated with 25 ng/mL anti-human IgG Alexa 647 conjugate in binding buffer (pH 7.0) at 4° C. for 1 hr. The array was again washed with 0.5 mL of washing buffer at 4° C. for 30 min.

Test [18] addresses Contiguous 8mer peptides of LY75 protein spanning residues 216 to 1666 of the full length LY75 protein. The test can be described thus: peptide microarray, 1 ug/mL LY75_A1, anti-human IgG Alexa 647; the peptide is not named.
The target is the same in test [19]. The test can be described thus: peptide microarray, 1 ug/mL LY75_A1, anti-human IgG Alexa 647.
The target in test [20] is T18, HRFPVTFG
T18 construct: 8mer of LY75 on the peptide microarray, chart Region 4
T18 peptide: HRFPVTFG
The test can be described thus: peptide microarray of 8mer LY75 peptides, LY75_A1 at 1 µg/mL, anti-human IgG Alexa 647. On the procedure:
as §1, §2

Test [21] concerns the target T19, VKYLNNLY
T19 construct: 8mer of LY75 on the peptide microarray, chart Region 7
T19 peptide: VKYLNNLY
Described as above. On the procedure:
as §1, §2

T6 sequence (O60449 28-1722 limits assumed): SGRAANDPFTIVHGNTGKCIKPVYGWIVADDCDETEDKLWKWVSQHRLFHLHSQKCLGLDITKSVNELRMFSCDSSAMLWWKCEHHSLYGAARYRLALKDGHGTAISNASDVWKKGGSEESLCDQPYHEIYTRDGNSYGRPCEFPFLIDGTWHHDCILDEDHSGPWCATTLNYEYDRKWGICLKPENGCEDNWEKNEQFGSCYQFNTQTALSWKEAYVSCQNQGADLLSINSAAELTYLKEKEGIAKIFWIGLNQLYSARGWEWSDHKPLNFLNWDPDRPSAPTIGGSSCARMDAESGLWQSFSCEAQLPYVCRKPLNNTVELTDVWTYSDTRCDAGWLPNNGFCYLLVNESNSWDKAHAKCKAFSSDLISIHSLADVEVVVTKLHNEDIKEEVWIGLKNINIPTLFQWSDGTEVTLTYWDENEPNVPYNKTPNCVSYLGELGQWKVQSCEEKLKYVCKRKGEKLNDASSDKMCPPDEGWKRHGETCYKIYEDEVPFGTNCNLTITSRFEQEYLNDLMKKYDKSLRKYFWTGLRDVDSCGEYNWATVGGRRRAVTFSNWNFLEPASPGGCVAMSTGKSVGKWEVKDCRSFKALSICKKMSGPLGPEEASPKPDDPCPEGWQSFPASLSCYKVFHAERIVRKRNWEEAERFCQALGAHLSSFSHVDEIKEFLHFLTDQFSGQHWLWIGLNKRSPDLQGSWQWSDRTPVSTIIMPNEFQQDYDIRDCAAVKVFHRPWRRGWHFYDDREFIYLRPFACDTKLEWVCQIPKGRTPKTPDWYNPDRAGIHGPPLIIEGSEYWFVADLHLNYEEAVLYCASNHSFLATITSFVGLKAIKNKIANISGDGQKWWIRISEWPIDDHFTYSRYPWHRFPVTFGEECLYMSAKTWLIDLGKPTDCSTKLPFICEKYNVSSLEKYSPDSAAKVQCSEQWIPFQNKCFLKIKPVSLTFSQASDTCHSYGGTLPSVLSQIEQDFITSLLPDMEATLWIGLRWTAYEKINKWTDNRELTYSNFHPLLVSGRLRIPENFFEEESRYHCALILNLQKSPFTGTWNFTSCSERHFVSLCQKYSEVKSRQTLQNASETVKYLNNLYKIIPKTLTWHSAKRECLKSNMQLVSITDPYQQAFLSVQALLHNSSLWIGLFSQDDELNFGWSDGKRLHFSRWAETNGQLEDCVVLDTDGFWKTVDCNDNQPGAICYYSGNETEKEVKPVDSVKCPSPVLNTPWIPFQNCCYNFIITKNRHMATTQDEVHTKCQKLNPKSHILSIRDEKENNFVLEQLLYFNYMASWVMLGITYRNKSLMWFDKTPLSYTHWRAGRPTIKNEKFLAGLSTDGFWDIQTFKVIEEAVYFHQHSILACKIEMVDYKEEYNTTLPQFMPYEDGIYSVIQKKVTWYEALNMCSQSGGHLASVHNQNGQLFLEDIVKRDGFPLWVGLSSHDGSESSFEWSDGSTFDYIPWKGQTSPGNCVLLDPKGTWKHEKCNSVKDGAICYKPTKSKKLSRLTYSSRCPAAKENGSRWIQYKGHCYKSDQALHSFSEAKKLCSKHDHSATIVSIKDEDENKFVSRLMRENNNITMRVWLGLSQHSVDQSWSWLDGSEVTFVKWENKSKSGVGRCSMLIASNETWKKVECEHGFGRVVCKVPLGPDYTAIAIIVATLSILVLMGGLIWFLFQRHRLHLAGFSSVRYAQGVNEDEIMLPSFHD

B1: LY75_A1 (antibody, V domains shown)
VH: EVQLVESGGGLVKPGGSLRLSCAASGFTYSNAWMSWVRQAPGKGLEWVGRIKSKTDGGTTDYAAPVQGRFTISRDDSKNTLYLQMNSLKTEDTAVYYCTIFGVVSFDYWGQGTLVTVSS
VL: DVQMTQSPSSLSASVGDRVTITCRASQSISDYLSWYQQRPGKAPNLLIYAASNLKTGVPSRFSGSGSGTDFTLTISTLQPEDFATYYCQQSYRSPWTFGQGTKVEIKR
notes: detected with anti-human IgG in the microarray; also called antibody LY75_A1; LY75_A1 monoclonal antibody
Consider B1, for which the binding result in test [1] is on record as “no binding (tested: 1 µg/mL)”; in test [2] it was “no binding (tested: 1 µg/mL)”; in [3], “no binding (tested: 1 µg/mL)”; in test [4], “no binding (tested: 1 µg/mL)”; in [5], “no binding (tested: 1 µg/mL)”; in [6] it was “binds”. The binding result in test [7] is on record as “binds”; in test [8], “binds”; in test [9], “binds”; in test [10], “binds”; in test [11] it was “binds”; in test [12], “no binding (tested: 1 µg/mL)”. Further, the binding result in test [13] is listed as “no binding (tested: 1 µg/mL)”; in [14], “no binding (tested: 1 µg/mL)”; in test [15] it was “no binding (tested: 1 µg/mL)”; in test [16] it was “no binding (tested: 1 µg/mL)”; in test [17], “binds”; in test [20] it was “binds”. The binding result in test [21] was “binds”. In test [18], this molecule registered a maximum signal (signal intensity (scale 1-65535)) of 25000. Also, in test [19], the average signal for all spots on the array (signal intensity (scale 1-65535)) was 885.

Values taken from patent US20200040086A1 (BERLIN CHEMIE, published 2020).
